Test results: the supplement of paper PMC10567573

B1: ZNF449 (parent)
chain: RIHSGEEPHKCPECGKRFLRSSDL

Variants of: B1
Assay: protein stability index of a GFP-peptide fusion (GPS, HEK-293T) (PSI 1-6); higher = more stable
Conditions: c terminus: a fixed tail appended
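Further: lentivirally expressed fusions sorted by FACS into six bins by GFP to DsRed ratio, PSI derived from sequencing read proportions per bin multiplied by bin number.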

Protein stability index: each site, then its substitutions
K16: E 3.99; D 4.41; C 3.32
C14: G 4.65; N 4.3; W 4.39; E 5.1; I 5; F 3.47; R 4.32; Y 3.6; P 4.06; K 3.87; D 4.58; A 4.26; L 3.79; H 3.95; T 4.69; Q 4.96; M 4.21; S 4.77; V 4.21
E13: L 3.38; M 2.92; F 3.77; Q 2.13; W 3.86; I 3.26; G 3.21; V 3.44; Y 3.54; C 3.71; P 3.6; T 3.41; A 2.72; K 2.72; D 2.59; R 2.84; N 3.43; H 3.34; S 3.63
E6: Y 2.27; T 2.71; V 2.28; S 1.79; W 2.08
H9: P 3.2; C 4.35; G 2.99; I 4.09; Y 3.48; D 3.5; S 3.28; W 2.73; E 3.78; K 3.83; F 3.95; V 4.15; A 3.42; L 2.19; M 3.42; T 3.44; R 3.18; Q 3.19
P8: I 4.26; W 3.72; K 2.51; A 3.64; E 3.44; D 4.1; Q 4.29; C 3.19; F 2.44; L 3.41; S 3.25; T 3.45; H 3.18; Y 3.57; M 3.34; N 3
G15: I 3.6; M 3.88; F 3.48; N 3.52; W 2.87; P 4.37; V 3.25; E 4.24; S 3.76; L 3.58; D 3.27; K 3.63; A 3.9; Q 3.85; C 3.28; T 3.89; Y 3.44; H 2.87
E7: A 2.71; N 2.51; G 2.81; V 2.96; T 3.04; K 2.46; D 2.82; L 2.98; Q 3.26; P 2.95; M 3.22; Y 2.71; R 1.89; C 4.79; H 3.45; I 2.68; F 2.98
K10: P 3.7; R 3.55; W 3.72; Y 3.94; A 3.35; E 3.57; T 3.82; N 3.42; I 3.74; Q 3.39; H 2.95; D 4.19; S 3; V 4.17; M 3.17; G 3.82; L 3.96
P12: L 3.23; W 2.05; K 3.2; S 3.66; E 4.41; C 3.32; Q 3.33; I 2.94; M 3.36; V 3.5; T 3.76; H 3.24; G 3.08; Y 3.12; D 4.36; R 2.92; F 3.29; A 3.15; N 4.18
C11: T 4.17; H 4.41; R 4.32; Y 4.21; V 4.19; P 4.23; L 4.11; N 4.57; I 4.51; K 4.5; A 4.32; W 3.79; M 4.35; F 3.54; D 4.17; S 3.72
